Results: the DeepSol protein solubility set

assay: soluble on expression in E. coli; label from the status in PepcDB or PDB records

Row | Sequence | soluble on expression in E. coli
1 | MGSDKIHHHHHHMNFREEFKLLLRARYPLIYIPTYEEERVEAAIREEATNQGNRPVYTWDFVDGYQGNPNDVGFGRRNPLQALEFIEKLPASAPAVLILRDYHRFLDDVAIARKLRNLSRLLKSQPKNIVLLSPRIAIPDDLTEVLTVVEFPLPAAAEIKTEVERLLQSTGNSLSGKVLDDLVLSCQGLSMERIRRVLAKAIATHGELQPEDVDLVLEEKRQTIRQTQILDFYPATEQISDIGGLDNLKDWLIRRGGSFTDKARQYGLPHPRGLMLVGIQGTGKSLTAKAIAHHWHLPLLRLDVGRLFGGLVGESESRTRQMIQVAEALAPCILWIDEIDKAFAGLGSKGDAGTASRVFGTFINWLAEKSSPVFVVATANDIQALPPEMLRKGRFDEIFFVGLPTQEERKAIYDVHLSRLRPHNLKSYDIERLAYETPDFSGAEIEQTLIEAMHIGFSQNRDFATDDILEAASQIVPLARTAVEQIQQLQEWAAAGRARLASKHNPLSERLRRTT | not soluble
2 | MGSDKIHHHHHHMNGHLNDCLICDGKLEYLDAAEEMECVICHKKHLNNVRCINRHYICDECHSKRGAKIILEVCRTTDSKNPIEIMQKLMAKPFIHMHGPEHHILTGAALLAAYHNSGGQLDLNKALNEIERRAKQVPGGACGFWGCCGAAISTGMFISIATGATPLSEREWSLSNLITSKVLRRISALGGPRCCKRNCFTAAKVAVEFTGEQLAVNMELPVDICCFFSPNNHECKGALCPYSPQHSNS | not soluble
3 | MGSDKIHHHHHHMNIELADLRLFVMIAECGNLTHGAARAFLSPPAASARIKAMEQEIGQQLLVRKNKGVELTPSGDALLRHARLVLRQFDFLTDDMTNAQMGHLRIYANTTGVTEFLPAILARFLADHPGVRVDLQERLTQEIIRAVADGTADIGIISGTEGRDGLERLRFATDRLMLAVPSGHHLAHHDQVSLEQTLAFEHIALHDGSTLLDFLRRQLRRSAFDRQLRIQVRSFEAMCRLIEAGVGIGVVPESAALRHLQTMDITLLALADDWAVRDRSILVRRWADLPQSAQRLIDLLVEKEAGGAEV | not soluble
4 | MGSDKIHHHHHHMNIKIAKNAGFCFGVKRAMKMAWDEVEKNDSGIYALGPLIHNKQAVAKYEEKGLKTVNEIDTIPNHENMIIRSHGVPENIYKEAKDKKLKIVDTTCPFVKKIHTVVSEYHNKGYEIIVIGDMKHPEVIGINGWCENSAIIIKTLEQMENMEFDNSKRYCLVAQTTINPELYISIVNKLSDKLEEIVFNDTICSATKTRQESAKELAKEVDCMIVIGGKHSSNTQKLVKVCEDLVPTFAIETKDELDVNTLKKYKNLGITAGASTPNWIIEEVVTFLENL | not soluble
5 | MGSDKIHHHHHHMNILVIGANGGVGSLLVQQLAKENVPFTAGVRQSDQLNALKSQGMKAILVDVENDSIETLTETFKPFDKVIFSVGSGGNTGADKTIIVDLDGAVKSMIASKEANIKHYVMVSTYDSRRQAFDDSGDLKPYTIAKHYADDYLRRSGLNYTILHPGALTNAAGSGKIEAAQYFDGKGEIPREDVATVLKEIVTSNHFNHQEFQIISGEQDIKDALTQFEIEKD | not soluble
6 | MGSDKIHHHHHHMNILVSNGEEHVNQTIASFFHQRGDRPILLFTEKEKHLEYVAGHPEQEAVLCTTYEEETLAAMVKEAFEEEAIDVLVHGNEMVNEAELLERDPSSLNEVVQKALYHLFLLNKVVVRDMVKRKQGKIIFPLFYDPLYYAGYASSPILNQAKLSLMKCMSRELGAFKINVNSITFGYYNDQFTREEKKATKSQVEIFCLKPKLPEIEEYVHSIGLLVDPSASLIGGENLHVGAGIETGI | not soluble
7 | MGSDKIHHHHHHMNIQEAFNAAAVDYDSLRRILIPCFDDFYKTAVEIIPIERTAPIKVLDLGAGTGLYSGMVQSVFPNAELTLLDLAPEMLEKAKLRFSKMGKSPKILIGDYVETNLDDSYDLIISALSIHHLSDFDKELLYQRIYNFLNPGGIFVNADQVLGKTPDLEELYRQHWLDSVRAKGISEEDLKAAQKRMEYDRMATLEIQLHWLEAAGFQNVDCWYKNFSFAVFGGYRPTI | not soluble
8 | MGSDKIHHHHHHMNKQVNFDELEVGYDVPALPGMDEADIQTPCLVLDLDALERNIKKMGDYAREHGMRHRVHGKMHKSVDVAKLQEELGGACGVCCQKVSEAEVFARGGIKDVMVSNQVTDPQKIDRLARMPKFGARVLCCVDDPANVADLSAAAVKHGTQIEALVEIDCGAGRCGVTTTQEVVNIAKMIDAAEGLKFAGIQAYQGAMQHLDSYDERASKTQVAIDMVEDAIAGLKANGLECDIVGGGGTGSYYFESNSGAFNELQCGSYAFMDADYGRILDKDGKRIDDGEWENALFILTSVMSHAKADKAIVDAGLKAQSVDSGLATIYGRDDVEYVKCSDEHGVVMDPDGVLNVNDKLRLVPGHCDPTCNVHDWYVGVRGGKVETLWPVSARGKAY | not soluble
